Results reported in patent US20240327480A1 (published 2024).
Ends that are not written are not given here. * marks the point of attachment. Biotin = O=C1N[C@H]2[C@H](CS[C@H]2CCCCC(=O)*)N1

How the values were obtained:
[1] = biological target: T1, full length RXR-alpha (human, UniProt P19793 1-462); assay: plate binding assay, 800 ng/well SA488-labelled peptide on 400 ng/well adsorbed receptor
T1 construct: mature; also called RXRα; NR2B1
T1 sequence (looked up): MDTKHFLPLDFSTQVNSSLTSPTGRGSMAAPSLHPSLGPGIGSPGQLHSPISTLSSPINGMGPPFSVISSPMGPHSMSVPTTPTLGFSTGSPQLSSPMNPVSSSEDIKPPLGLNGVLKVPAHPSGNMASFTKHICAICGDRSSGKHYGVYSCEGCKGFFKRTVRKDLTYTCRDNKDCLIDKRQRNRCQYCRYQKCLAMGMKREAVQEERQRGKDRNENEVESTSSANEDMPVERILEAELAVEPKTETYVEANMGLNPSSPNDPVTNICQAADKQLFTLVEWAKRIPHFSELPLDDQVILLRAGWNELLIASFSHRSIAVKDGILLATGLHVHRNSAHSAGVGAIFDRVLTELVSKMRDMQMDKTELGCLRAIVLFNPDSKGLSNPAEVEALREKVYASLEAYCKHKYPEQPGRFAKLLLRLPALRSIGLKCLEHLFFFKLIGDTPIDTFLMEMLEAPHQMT
Protocol: (§1) Experiment 4B. Binding of immodulin peptides to RXR isoforms and domains. 100 ng/well recombinant human RXRa-DBD or RXRa-LBD, or 400 ng/well full length RXR-alpha, RXR-beta, RXR-gamma or PPAR-gamma (Abcam, Cambridge, MA) was adsorbed to wells of a 96-well plate for 60 minutes at room temperature, then blocked with 200 uL 1% BSA in PBS buffer overnight. The plate was washed with PBS and 800 ng/well Streptavidin-Alexa 488 conjugate (SA488)-labelled peptide was added. The plate was incubated for 2 hours at room temperature, washed and counted in a fluorometer (excitation/emission 485/525 nm).

[2] = biological target: T2, full length RXR-gamma (human, UniProt P48443 1-463); assay: as above
T2 construct: mature; also called RXRγ; NR2B3
T2 sequence (looked up): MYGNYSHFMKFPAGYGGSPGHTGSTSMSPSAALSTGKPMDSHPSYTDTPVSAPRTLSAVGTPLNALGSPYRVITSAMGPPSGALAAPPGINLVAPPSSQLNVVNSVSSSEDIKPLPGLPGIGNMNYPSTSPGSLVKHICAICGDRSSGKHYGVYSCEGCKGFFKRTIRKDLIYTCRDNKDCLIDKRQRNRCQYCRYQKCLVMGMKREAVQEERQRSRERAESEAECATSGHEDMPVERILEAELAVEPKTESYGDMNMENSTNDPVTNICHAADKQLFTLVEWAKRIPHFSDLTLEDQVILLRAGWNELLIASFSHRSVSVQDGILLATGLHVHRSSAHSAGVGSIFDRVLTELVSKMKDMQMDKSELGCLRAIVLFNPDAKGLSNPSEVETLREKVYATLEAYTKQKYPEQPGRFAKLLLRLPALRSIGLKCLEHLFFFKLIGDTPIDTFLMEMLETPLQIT
Protocol: as §1

[3] = biological target: T3, full length RXR-beta (human, UniProt P28702 1-533); assay: as above
T3 construct: mature; also called RXRβ; NR2B2
T3 sequence (looked up): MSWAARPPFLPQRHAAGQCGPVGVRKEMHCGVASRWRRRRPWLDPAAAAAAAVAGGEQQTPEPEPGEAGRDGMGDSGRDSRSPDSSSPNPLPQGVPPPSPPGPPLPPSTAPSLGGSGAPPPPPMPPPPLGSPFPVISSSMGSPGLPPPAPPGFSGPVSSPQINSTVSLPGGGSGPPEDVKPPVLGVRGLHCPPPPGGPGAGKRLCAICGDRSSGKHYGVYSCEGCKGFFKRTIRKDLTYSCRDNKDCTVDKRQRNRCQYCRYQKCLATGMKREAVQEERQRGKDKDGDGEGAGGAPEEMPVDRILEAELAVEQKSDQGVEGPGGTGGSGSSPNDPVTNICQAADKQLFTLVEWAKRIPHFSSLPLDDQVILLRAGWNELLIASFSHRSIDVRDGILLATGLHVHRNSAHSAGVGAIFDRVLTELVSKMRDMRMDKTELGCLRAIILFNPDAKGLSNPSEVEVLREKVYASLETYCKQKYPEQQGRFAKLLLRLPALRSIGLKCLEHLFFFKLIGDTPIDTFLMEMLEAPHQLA
Protocol: as §1

[4] = biological target: T4, full length PPAR-gamma (human, UniProt P37231 1-505); assay: as above
T4 construct: mature
T4 sequence (looked up): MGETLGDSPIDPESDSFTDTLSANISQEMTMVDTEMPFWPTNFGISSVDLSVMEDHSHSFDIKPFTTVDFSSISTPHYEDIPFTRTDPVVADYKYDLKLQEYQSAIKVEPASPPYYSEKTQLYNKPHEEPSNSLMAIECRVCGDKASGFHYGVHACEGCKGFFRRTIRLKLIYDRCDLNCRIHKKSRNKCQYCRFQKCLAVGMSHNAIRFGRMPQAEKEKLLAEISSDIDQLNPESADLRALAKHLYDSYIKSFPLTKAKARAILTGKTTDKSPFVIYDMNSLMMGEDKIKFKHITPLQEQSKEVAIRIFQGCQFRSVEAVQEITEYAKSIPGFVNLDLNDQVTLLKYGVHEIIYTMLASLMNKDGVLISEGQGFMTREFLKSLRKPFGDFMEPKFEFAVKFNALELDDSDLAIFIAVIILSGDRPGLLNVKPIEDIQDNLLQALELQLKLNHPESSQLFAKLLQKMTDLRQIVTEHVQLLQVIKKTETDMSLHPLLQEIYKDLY
Protocol: as §1

[5] = biological target: T5, AA111-228 DNA-binding domain of RXR-alpha (human, UniProt P19793 111-228); assay: plate binding assay, 800 ng/well SA488-labelled peptide on 1 ug/well adsorbed RXRa-DBD
T5 construct: range 111-228; Bought recombinant protein (Abcam); also called RXRa-DBD; RXR-alpha DBD
T5 sequence (looked up): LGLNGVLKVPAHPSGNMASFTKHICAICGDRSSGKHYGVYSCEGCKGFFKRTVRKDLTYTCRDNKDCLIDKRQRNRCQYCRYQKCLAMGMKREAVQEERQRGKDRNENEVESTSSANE
Protocol: Experiment 4A. Binding of immodulin peptides to AA111-228 DNA-binding domain of RXR-alpha (RXRa-DBD). 1 ug/well recombinant RXRa-DBD (Abcam, Cambridge, MA) was adsorbed to wells of a 96-well plate for 60 minutes at room temperature, then blocked with 200 uL 1% bovine serum albumin (BSA) in PBS buffer overnight. Plate was washed and 800 ng/well Streptavidin-Alexa 488 conjugate (SA488)-labelled immX peptide was added. The plate was incubated for 60 min at room temperature, washed and counted in a standard fluorometer (excitation/emission 485/525 nm). Background (buffer alone) was subtracted.

[6] = biological target: T6, full-length human Nur77 (NR4A1) (human, UniProt P22736 1-598); assay: plate binding assay, SA488-labelled peptide on adsorbed Nur77, fluorescence
T6 construct: mature
T6 sequence (P22736 whole entry): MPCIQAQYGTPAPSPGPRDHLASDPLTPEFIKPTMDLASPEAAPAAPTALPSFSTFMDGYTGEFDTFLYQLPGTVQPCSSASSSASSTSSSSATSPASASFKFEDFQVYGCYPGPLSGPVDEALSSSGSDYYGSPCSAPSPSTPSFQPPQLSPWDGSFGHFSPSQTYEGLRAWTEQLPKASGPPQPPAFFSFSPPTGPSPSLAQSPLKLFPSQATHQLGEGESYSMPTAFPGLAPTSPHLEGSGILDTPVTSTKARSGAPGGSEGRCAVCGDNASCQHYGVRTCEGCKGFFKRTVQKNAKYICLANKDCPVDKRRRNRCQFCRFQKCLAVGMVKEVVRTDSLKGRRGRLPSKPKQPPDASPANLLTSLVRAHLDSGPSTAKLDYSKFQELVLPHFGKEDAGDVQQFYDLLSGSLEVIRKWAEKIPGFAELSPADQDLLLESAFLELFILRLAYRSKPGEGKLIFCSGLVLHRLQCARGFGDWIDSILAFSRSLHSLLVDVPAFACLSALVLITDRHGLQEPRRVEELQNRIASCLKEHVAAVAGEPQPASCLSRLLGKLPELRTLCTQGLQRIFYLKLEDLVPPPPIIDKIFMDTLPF
Protocol: Experiment 4C. Binding of immodulin peptides to full-length human Nur77 (NR4A1). 400 ng/well recombinant human Nur77 protein (NR4A1) purchased from Abcam Inc, Cambridge, MA, was adsorbed to wells of a 96-well plate for 90 minutes at room temperature, then blocked with 200 uL 1% BSA in PBS buffer overnight. […] The plate was incubated for 60 min at room temperature, washed and counted in a standard fluorometer (excitation/emission 485/525 nm). Background (buffer alone) was subtracted.

[7] = biological target: T5, AA111-228 DNA-binding domain of …; assay: plate binding assay, 800 ng/well SA488-labelled peptide on 100 ng/well adsorbed domain
Protocol: as §1

[8] = biological target: T7, RXR-alpha ligand-binding domain (human, UniProt P19793 223-462, limits assumed); assay: as above
T7 construct: Bought recombinant protein (Abcam); also called RXRa-LBD; RXR-alpha LBD
T7 sequence (looked up): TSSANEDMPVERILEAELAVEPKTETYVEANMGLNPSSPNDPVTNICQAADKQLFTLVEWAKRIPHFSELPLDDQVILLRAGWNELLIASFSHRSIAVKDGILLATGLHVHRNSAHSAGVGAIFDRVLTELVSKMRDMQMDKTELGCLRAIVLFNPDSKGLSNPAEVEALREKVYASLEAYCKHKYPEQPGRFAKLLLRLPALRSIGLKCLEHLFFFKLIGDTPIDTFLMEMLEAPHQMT
Protocol: as §1

B1: imm4 (peptide)
peptide: Biotin-RNGNFHPKQCHPALDGQRGKCW
modifications: cysteine pairing not given here; also: labelled with Streptavidin-Alexa 488 conjugate (SA488)
notes: Synthetic immodulin peptide derived from IGFBP-4
fluorescence relative to imm3 binding (=100) [1]: 3.6 relative to imm3 binding (=100)
fluorescence relative to imm3 binding (=100) [2]: 3.6 relative to imm3 binding (=100)
fluorescence relative to imm3 binding (=100) [3]: 0.3 relative to imm3 binding (=100)
fluorescence relative to imm3 binding (=100) [4]: 0.1 relative to imm3 binding (=100)
Fluorescence (background subtracted) [5]: 27 fluorescence counts
binding result [6]: no binding (tested: 333 ng/well peptide on 400 ng/well Nur77)
fluorescence relative to imm3 binding (=100) [7]: 3.2 relative to imm3 binding (=100)
fluorescence relative to imm3 binding (=100) [8]: 3 relative to imm3 binding (=100)

B2: imm5 (peptide)
peptide: Biotin-RKGFYKRKQCKPSRGRKRGICW
modifications: cysteine pairing not given here; also: labelled with Streptavidin-Alexa 488 conjugate (SA488)
notes: Synthetic immodulin peptide derived from IGFBP-5; also called immodulin peptide-5
fluorescence relative to imm3 binding (=100) [1]: 17.2 relative to imm3 binding (=100)
fluorescence relative to imm3 binding (=100) [2]: 90 relative to imm3 binding (=100)
fluorescence relative to imm3 binding (=100) [3]: 4 relative to imm3 binding (=100)
fluorescence relative to imm3 binding (=100) [4]: 1.6 relative to imm3 binding (=100)
Fluorescence (background subtracted) [5]: 6800 fluorescence counts
fluorescence relative to imm3 binding (=100) [7]: 22.7 relative to imm3 binding (=100)
fluorescence relative to imm3 binding (=100) [8]: 1.8 relative to imm3 binding (=100)

B3: imm3 (peptide)
peptide: Biotin-KKGFYKKKQCRPSKGRKRGFCW
modifications: cysteine pairing not given here; also: labelled with Streptavidin-Alexa 488 conjugate (SA488)
notes: Synthetic immodulin peptide derived from IGFBP-3; also called immodulin peptide-3
fluorescence relative to imm3 binding (=100) [1]: 11.2 relative to imm3 binding (=100)
fluorescence relative to imm3 binding (=100) [2]: 100 relative to imm3 binding (=100)
fluorescence relative to imm3 binding (=100) [3]: 2.9 relative to imm3 binding (=100)
fluorescence relative to imm3 binding (=100) [4]: 2.1 relative to imm3 binding (=100)
Fluorescence (background subtracted) [5]: 6570 fluorescence counts
fluorescence relative to imm3 binding (=100) [7]: 22.2 relative to imm3 binding (=100)
fluorescence relative to imm3 binding (=100) [8]: 0.6 relative to imm3 binding (=100)

B4: imm6 (peptide)
peptide: Biotin-HRGFYRKRQCRSSQGQRRGPCW
modifications: cysteine pairing not given here; also: labelled with Streptavidin-Alexa 488 conjugate (SA488)
notes: Synthetic immodulin peptide derived from IGFBP-6; also called immodulin peptide-6
fluorescence relative to imm3 binding (=100) [1]: 12.9 relative to imm3 binding (=100)
fluorescence relative to imm3 binding (=100) [2]: 42 relative to imm3 binding (=100)
fluorescence relative to imm3 binding (=100) [3]: 4.7 relative to imm3 binding (=100)
fluorescence relative to imm3 binding (=100) (relative to imm3 binding (=100)) [4]: 6.8
Fluorescence (background subtracted) [5]: 587 fluorescence counts
fluorescence relative to imm3 binding (=100) [7]: 22.9 relative to imm3 binding (=100)
fluorescence relative to imm3 binding (=100) [8]: 1.6 relative to imm3 binding (=100)
